Positions count from the first letter of the chain named.

Experimental findings from patent US20250027068 are described below.

B1: PRT-122 (protein)
chain: MRNATEAYAKEVPKKITSVWTKGVTPLTPEQFIYQNEDVFHAPYLAHQGWYDITKTFNGKDNLLCGAATAGNMLHWWFDQNKEEIERYLSKHPEKQKIIFNNQELFDLKAAIDTKDSQTNSALFNYFRDKAFPNLSARQLGVMPDLVLDMFINGYYLNVTKTQSTDVNRPYQTKDKRGGIFDAVFTRGDQTKLLTERHDLKNKTLEEISQLIKQELTEGKALGLSHTYANVRISHVINLWGADFDAEGNLEAIYVTDSDSNASIGMKKYFVGVNASGKVAISAKKIEDDNIGAQVLGLFTLSSGKDIWEKLS
B2: PRT-11 (protein)
chain: MANQEIRYSEETPYHVTSVWTKGVTPPANFTQGEDVFHAPYVANQGWYDITKTFNGKDDLLCGAATAGNMLHWWFDQNKDQIEKYLKEHPEKQKINFNGEQMFDVKEAIDTKDSQTDSKLFEYFKEKAFPYLSTKHLGVFPDHVIDMFINGYRLSLTNHGPTPVKEQSKDPRGGIFDAVFTRGDQSKLLTSRHDFKEKTLKEISDLIKKELSEGKALGLSHTYANVRINHVINLWGADFDSNGNLKAIYVTDSDSNASIGMKKYFVGVNSAGKVAISAKEIKEDNIGAQVLGLFTLSTGQDIWNQTN
B3: PRT-12 (protein)
chain: MANQEIRYSEVTPYHVTSVWTKGVTPPADFTQGEDVFHAPYKANQGWYDITKTFNGKDDLLCGAATAGNMLHWWFDQNKDQIERYLKEHPEKQKINFNGEQMFDVKEAIDTKDSQTDSKLFEYFKEKAFPYLSTKHLGVFPDHVIDMFINGYRLSLTNHGPTPVKRGSKDPRGGFFDAVFTRGDQSKLLTSRHDFKEKTLNEISDLIKKELTEGKALGLSHTYANVRINHVINLWGADFDSNGNLEAIYVTDSDSNASIGMKKYFVGVNSAGKVAISAKEIKEDNIGAQVLGLFTLSTGQDIWEQTN
B4: PRT-124 (protein)
chain: MRNATEAYAKEVPHQITSVWTKGVTPLTPEQFRYNNEDVIHAPYLAHQGWYDITKTFDGKDNLLCGAATAGNMLHWWFDQNKTEIEAYLSKHPEKQKIIFNNQELFDLKAAIDTKDSQTNSQLFNYFRDKAFPNLSARQLGVMPDLVLDMFINGYYLNVFKTQSTDVNRPYQDKDKRGGIFDAVFTRGDQTTLLTARHDLKNKGLNDISTIIKQELTEGKALALSHTYANVSISHVINLWGADFNAEGNLEAIYVTDSDANASIGMKKYFVGVNAHGKVAISAKKIEGENIGAQVLGLFTLSSGKDIWQKLS
B5: PRT-134 (protein)
chain: B4 chain with T56A, I211L, K220R, V273I, K278H
B6: PRT-126 (protein)
chain: B4 chain with H47N, T210D, I211L, A260S, H276A, K278H
B7: PRT-125 (protein)
chain: B4 chain with I40F, H47N, T192K, I211L, K278H
B8: PRT-131 (protein)
chain: B4 chain with T56A, D58N, S90K, D207E, K220R, V273I
B9: PRT-127 (protein)
chain: B4 chain with H47N, D58N, S90K, D207E, I211L, A260S
B10: PRT-137 (protein)
chain: B4 chain with T56A, K220R, V273I
B11: PRT-133 (protein)
chain: B4 chain with K220R, V273I, K278H
B12: PRT-132 (protein)
chain: B4 chain with H14K, L27P, T56A, G204T, K220R, V273I, K278H
B13: PRT-128 (protein)
chain: B4 chain with H14K, L27P, H47N, D58N, G204T, I211L
B14: PRT-138 (protein)
chain: B4 chain with L27P, T56A, K220R, V273I, K278H
B15: PRT-129 (protein)
chain: B4 chain with I40F, H47N, T56A, T192K, I211L, K220R, V273I, K278H
B16: PRT-130 (protein)
chain: B4 chain with T56A, T210D, K220R, A260S, V273I, H276A, K278H
B17: PRT-136 (protein)
chain: B4 chain with T56A, K220R, K278H
B18: PRT-139 (protein)
chain: B4 chain with H47N, T56A, K220R, V273I, K278H
B19: PRT-135 (protein)
chain: B4 chain with T56A, V273I, K278H
B20: PRT-123 (protein)
chain: MRNATEAYNKESPHTITSVWTKGVTPPTPEDFRYNNEDVLHAPYVANQGWYDITKTFDGKDNLLCGAATAGNMLHWWFDQNKEEIERYLKKHPEKQKIIFNNQELFDVKAAIDTKDSQTNSKLFNYFRDKAFPNLSARQLGVMPDLVLDMFINGYYLNLGKTQSTDVNRPYQDKDKRGGIFDAVFTRGDQTTLLTARHDLKNKGLNEISDLIKQELTEGKALALSHTYANVRINHVINLWGADFDAEGNLIAIYVTDSDANASIGMKKYFVGVNANGKVAISAKKIEGDNIGAQVLGLFTLSTGQDIWQKLS

In this series the target is pooled human IgG.
The protein B1 displayed an Enzyme Activity Endpoint Assay (purified): Fab'2 of 565 ng/µL, an Enzyme Activity Endpoint Assay (purified): Fc of 194 ng/µL, an Enzyme Activity Endpoint Assay (purified): IgG of 138 ng/µL and an Enzyme Activity Endpoint Assay (purified): scIgG of 0 ng/µL.

As to B2, the Enzyme Activity Endpoint Assay: Fab′2 was determined as 40 ng/µL, the Enzyme Activity Endpoint Assay: Fc was 100 ng/µL, the Enzyme Activity Endpoint Assay: IgG was 13 ng/µL and the Enzyme Activity Endpoint Assay: scIgG amounted to 0 ng/µL.

Protein B3 yielded an Enzyme Activity Endpoint Assay: Fab′2 of 47 ng/µL, an Enzyme Activity Endpoint Assay: Fc of 122 ng/µL, an Enzyme Activity Endpoint Assay: IgG of 16 ng/µL and an Enzyme Activity Endpoint Assay: scIgG of 14 ng/µL.

B4 displayed an Enzyme Activity Endpoint Assay (purified): Fab'2 of 676 ng/µL, an Enzyme Activity Endpoint Assay (purified): Fc of 202 ng/µL, an Enzyme Activity Endpoint Assay (purified): IgG of 0 ng/µL and an Enzyme Activity Endpoint Assay (purified): scIgG of 0 ng/µL.

Take B5: the Enzyme Activity Endpoint Assay (purified): Fab'2 stood at 597 ng/µL, the Enzyme Activity Endpoint Assay (purified): Fc is 174 ng/µL, the Enzyme Activity Endpoint Assay (purified): IgG is 0 ng/µL and the Enzyme Activity Endpoint Assay (purified): scIgG stood at 0 ng/µL.

As to B6, the Enzyme Activity Endpoint Assay (purified): Fab'2 was found to be 472 ng/µL, the Enzyme Activity Endpoint Assay (purified): Fc stood at 160 ng/µL, the Enzyme Activity Endpoint Assay (purified): IgG turned out to be 0 ng/µL and the Enzyme Activity Endpoint Assay (purified): scIgG came out at 0 ng/µL.

B7 displayed an Enzyme Activity Endpoint Assay (purified): Fab'2 of 609 ng/µL, an Enzyme Activity Endpoint Assay (purified): Fc of 197 ng/µL, an Enzyme Activity Endpoint Assay (purified): IgG of 0 ng/µL and an Enzyme Activity Endpoint Assay (purified): scIgG of 0 ng/µL.

For the protein B8, the Enzyme Activity Endpoint Assay (purified): Fab'2 stood at 745 ng/µL, the Enzyme Activity Endpoint Assay (purified): Fc was 201 ng/µL, the Enzyme Activity Endpoint Assay (purified): IgG came out at 0 ng/µL and the Enzyme Activity Endpoint Assay (purified): scIgG was found to be 0 ng/µL.

In turn, B9 showed an Enzyme Activity Endpoint Assay (purified): Fab'2 of 523 ng/µL, an Enzyme Activity Endpoint Assay (purified): Fc of 140 ng/µL, an Enzyme Activity Endpoint Assay (purified): IgG of 0 ng/µL and an Enzyme Activity Endpoint Assay (purified): scIgG of 0 ng/µL.

In the case of B10, the Enzyme Activity Endpoint Assay (purified): Fab'2 turned out to be 662 ng/µL, the Enzyme Activity Endpoint Assay (purified): Fc is 198 ng/µL, the Enzyme Activity Endpoint Assay (purified): IgG turned out to be 0 ng/µL and the Enzyme Activity Endpoint Assay (purified): scIgG was found to be 0 ng/µL.

In turn, B11 gave an Enzyme Activity Endpoint Assay (purified): Fab'2 of 774 ng/µL, an Enzyme Activity Endpoint Assay (purified): Fc of 207 ng/µL, an Enzyme Activity Endpoint Assay (purified): IgG of 0 ng/µL and an Enzyme Activity Endpoint Assay (purified): scIgG of 12 ng/µL.

B12 came in with an Enzyme Activity Endpoint Assay (purified): Fab'2 of 697 ng/µL, an Enzyme Activity Endpoint Assay (purified): Fc of 219 ng/µL, an Enzyme Activity Endpoint Assay (purified): IgG of 0 ng/µL and an Enzyme Activity Endpoint Assay (purified): scIgG of 0 ng/µL.

As to B13, the Enzyme Activity Endpoint Assay (purified): Fab'2 was 560 ng/µL, the Enzyme Activity Endpoint Assay (purified): Fc amounted to 151 ng/µL, the Enzyme Activity Endpoint Assay (purified): IgG was 0 ng/µL and the Enzyme Activity Endpoint Assay (purified): scIgG amounted to 60 ng/µL.

As for B14, the Enzyme Activity Endpoint Assay (purified): Fab'2 amounted to 563 ng/µL, the Enzyme Activity Endpoint Assay (purified): Fc was 215 ng/µL, the Enzyme Activity Endpoint Assay (purified): IgG is 0 ng/µL and the Enzyme Activity Endpoint Assay (purified): scIgG was determined as 144 ng/µL.

With B15, the Enzyme Activity Endpoint Assay (purified): Fab'2 was determined as 384 ng/µL, the Enzyme Activity Endpoint Assay (purified): Fc was 169 ng/µL, the Enzyme Activity Endpoint Assay (purified): IgG was 0 ng/µL and the Enzyme Activity Endpoint Assay (purified): scIgG amounted to 0 ng/µL.

In the case of B16, the Enzyme Activity Endpoint Assay (purified): Fab'2 turned out to be 592 ng/µL, the Enzyme Activity Endpoint Assay (purified): Fc came out at 192 ng/µL, the Enzyme Activity Endpoint Assay (purified): IgG stood at 0 ng/µL and the Enzyme Activity Endpoint Assay (purified): scIgG was found to be 0 ng/µL.

For B17, the Enzyme Activity Endpoint Assay (purified): Fab'2 is 635 ng/µL, the Enzyme Activity Endpoint Assay (purified): Fc came out at 160 ng/µL, the Enzyme Activity Endpoint Assay (purified): IgG was determined as 0 ng/µL and the Enzyme Activity Endpoint Assay (purified): scIgG was 0 ng/µL.

The protein B18 returned an Enzyme Activity Endpoint Assay (purified): Fab'2 of 733 ng/µL, an Enzyme Activity Endpoint Assay (purified): Fc of 213 ng/µL, an Enzyme Activity Endpoint Assay (purified): IgG of 0 ng/µL and an Enzyme Activity Endpoint Assay (purified): scIgG of 0 ng/µL.

In the case of B19, the Enzyme Activity Endpoint Assay (purified): Fab'2 amounted to 526 ng/µL, the Enzyme Activity Endpoint Assay (purified): Fc stood at 140 ng/µL, the Enzyme Activity Endpoint Assay (purified): IgG was 0 ng/µL and the Enzyme Activity Endpoint Assay (purified): scIgG was determined as 6 ng/µL.

B20 came in with an Enzyme Activity Endpoint Assay (purified): Fab'2 of 468 ng/µL, an Enzyme Activity Endpoint Assay (purified): Fc of 187 ng/µL, an Enzyme Activity Endpoint Assay (purified): IgG of 0 ng/µL and an Enzyme Activity Endpoint Assay (purified): scIgG of 0 ng/µL.
